Results taken from publication doi:10.1101/2025.01.31.636011, “Discovery of a distinct BAM complex in the Bacteroidetes” (bioRxiv, 2025).

T1: BtBamA (Bt3725) with an N-terminal His7 tag (Bacteroides thetaiotaomicron, UniProt Q8A1E1 20-885)
T1 construct: also called BtBamAhis; BamAhis
T1 sequence (looked up): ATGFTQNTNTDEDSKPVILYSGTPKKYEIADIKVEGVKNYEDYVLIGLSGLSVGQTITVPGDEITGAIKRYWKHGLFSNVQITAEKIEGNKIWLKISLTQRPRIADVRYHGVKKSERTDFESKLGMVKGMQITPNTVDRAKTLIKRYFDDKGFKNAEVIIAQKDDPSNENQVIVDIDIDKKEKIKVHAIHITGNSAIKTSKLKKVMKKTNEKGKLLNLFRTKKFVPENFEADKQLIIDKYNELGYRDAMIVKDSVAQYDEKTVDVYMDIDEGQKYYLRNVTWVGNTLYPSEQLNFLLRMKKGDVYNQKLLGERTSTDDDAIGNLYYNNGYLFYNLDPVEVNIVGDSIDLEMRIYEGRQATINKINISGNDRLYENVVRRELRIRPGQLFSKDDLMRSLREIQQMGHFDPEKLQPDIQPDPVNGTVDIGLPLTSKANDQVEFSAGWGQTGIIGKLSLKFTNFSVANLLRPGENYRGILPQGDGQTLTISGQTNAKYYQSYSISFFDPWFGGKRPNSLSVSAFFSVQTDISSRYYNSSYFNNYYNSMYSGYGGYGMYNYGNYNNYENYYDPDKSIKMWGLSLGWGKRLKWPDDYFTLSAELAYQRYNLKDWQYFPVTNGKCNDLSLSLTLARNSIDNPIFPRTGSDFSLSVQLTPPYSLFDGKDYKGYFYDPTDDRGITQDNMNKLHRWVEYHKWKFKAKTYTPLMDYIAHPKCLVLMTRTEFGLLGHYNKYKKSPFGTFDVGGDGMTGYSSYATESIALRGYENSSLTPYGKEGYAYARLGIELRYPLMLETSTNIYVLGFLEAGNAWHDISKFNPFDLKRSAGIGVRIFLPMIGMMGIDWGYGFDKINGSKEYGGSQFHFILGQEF

T2: PgBamA (PGN_0299) (Porphyromonas gingivalis (endogenous in …, UniProt B2RHH3 20-891))
T2 construct: also called P. gingivalis BamA; source: endogenous, P. gingivalis expressing His-tagged BamG, membranes solubilised in DDM
T2 sequence: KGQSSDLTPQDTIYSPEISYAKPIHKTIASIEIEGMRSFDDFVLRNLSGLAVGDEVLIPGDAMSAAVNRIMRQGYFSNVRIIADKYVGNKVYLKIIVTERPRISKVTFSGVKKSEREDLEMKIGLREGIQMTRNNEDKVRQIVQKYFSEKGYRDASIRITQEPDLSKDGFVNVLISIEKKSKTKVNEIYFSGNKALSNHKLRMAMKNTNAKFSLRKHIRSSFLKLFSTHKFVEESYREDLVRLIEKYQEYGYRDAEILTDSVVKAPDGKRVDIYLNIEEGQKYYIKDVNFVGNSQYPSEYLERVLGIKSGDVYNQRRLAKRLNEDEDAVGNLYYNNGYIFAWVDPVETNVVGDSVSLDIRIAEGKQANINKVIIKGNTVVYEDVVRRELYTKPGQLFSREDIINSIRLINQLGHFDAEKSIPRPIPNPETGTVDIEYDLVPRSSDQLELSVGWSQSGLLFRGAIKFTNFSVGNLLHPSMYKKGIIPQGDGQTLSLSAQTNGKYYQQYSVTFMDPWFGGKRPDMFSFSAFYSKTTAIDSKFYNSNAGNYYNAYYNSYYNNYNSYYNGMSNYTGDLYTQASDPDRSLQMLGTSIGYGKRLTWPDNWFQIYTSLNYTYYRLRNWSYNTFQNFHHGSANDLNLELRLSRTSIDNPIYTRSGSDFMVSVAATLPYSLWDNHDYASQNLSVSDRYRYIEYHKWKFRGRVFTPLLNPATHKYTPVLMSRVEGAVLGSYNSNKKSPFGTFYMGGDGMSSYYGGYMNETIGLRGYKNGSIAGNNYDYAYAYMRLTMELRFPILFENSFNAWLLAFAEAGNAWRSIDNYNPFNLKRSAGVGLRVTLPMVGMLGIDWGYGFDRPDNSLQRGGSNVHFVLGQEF

B1: BtBamF (Bt4367) (natural protein, UniProt Q89ZL0 23-431, looked up)
chain: QNNTNSPYTRYGYGDLSDQSFGNSKAMGGIAFGLRDGAQINPTNPASYTAIDSLTFLFEGGVSLQNMNISGGGLKLNAKNASFDYLAMQFRLAPWMAMSVGLLPYSNVGYTVSDSQTTDNGLAYSRSFTGDGGLHQMYVGAGVKVLKNLSVGVNASYFWGDITRTRGMFYPGTSSYDSYQRKMVTSISDYKLDFGAQYTQALNKKSSLTIGAVYSPKHKLNNDYTSIVIMGASSSSYGTEYKDVLDATFELPNTFGVGFTYNYDKRLTVGADYSLQQWSKTNFGVVTSDENVRQDFNETFTYCDRTKISVGAEYIPNLIGRSYFAHIKYRLGAYYTTPYYKIDGKKASREYGVTAGFGLPVPRSRSILSISGQFVRVKGLETNMVNENIFRVSIGLTFNERWFFKRRVE
modifications: O-glycosylation (glycan on Ser75)
B2: BtBamI (Bt3612) (natural protein, UniProt Q8A1P7 20-196, looked up)
chain: CSETEEVGKYDNWRARNEAFIDSLANVYATASGRGGLERIEMLTAPGNYIYYKEMEPMTDHVVKAGNPKYTDYVKVYYKGTNILGEYFDGNFKGDNPVVDGKDPSEGDSPTTIFQVSGVITGWGEVLQRMEVGDRWKVYIPWDYAYGSSGTTGILGYSALVFDITLLDFANTEAELK
modifications: O-glycosylation (sites not given)
B3: BtBamG (Bt4306) (natural protein, UniProt Q89ZS0 18-542, looked up)
chain: CDDNTGGLGLGMFPGNDQNIKGKLSTFDVTTESVKTGDIYAKTNIGYIGKFTDETFGTYQAGFLAQLNCPDGLTFPEPYKEVTDASGNVISATGRMVVDDKDPENKDVTFIKDGNQIIGNIRAVELYLWYDSYFGDSLTACRLSVYELGGNGKETLNLDNAYYTDINPEDFYDSQNILGTKAYTAVDLSVKDSIRNLSTYVPSVHIAFKEDIATRVGGNILTAARKAKNADKEFNSQLFREAFQGIYVKSDYGDGTVLYIDQPQMNVVYKCYATDSITGKKLQKKDGSGKDSTYYSYRVFATTREVIQANQLKNDPERIDALIKEDKNTYLKSPAGIFTEATLPISDIQNELTGDTLNAVKLTFTNYNQTGDKKFGMAIPSTVMLVRKKFQDSFFKDNKLSDGVSSYLTSHTSSTNQYVFSNITKLVNACIAEKEEAKKNAGSSWDETKWLQENPDWNKVVLIPVLVTYDSSNTTTGQANIIRIQHDLKPGYVRLKGGSLGKTNPDYKLKLEVISTDFGLTTKSN
modifications: tri-acylated lipid anchor on the N-terminal cysteine; O-glycosylation (glycan on Ser309)
notes: also called Bt4306/BamG
B4: PgBamG (PGN_1735) with a C-terminal 7His-tag (natural protein)
chain: CDDDLSPIGGSIQPPSDPVSARVDTLEFSVKTIPMGDIYNRTNYTLLGDLTDPEYGDLKADYIMQFKSPRNFKFKYPPKDGKIDSVKLSINYDSWAGDSTSIMKVSIYKINKAIPPSYYSTQELASLLDETQIIASQTFKAGNDSAFHRVRIPLPNEIGQKIYDLSVNNPSVFDTQESFYNNVLGGLYVTTTTGTGVVLSVYNTQMAIFYSYKVAADSTATASETFVNTSESYQVNHIKNSQISHLLQENDSLSCVKSPAGVMTQLTISKEQFTDAFTSNLSSSLAWQIGEAQFNISASKPSEGLMLSPPSYLLLLPQDSVRNFFEQEQTELMQPRTAFLSTIYNIKKREYRFSNISRLLMEHIKNNTEKTPEGKPYITKDLVLVLLPVKRQVAGASNSLYTSQLNNFMFPSGVKLQLGKKNKTARIGVYSMTYTDN
modifications: tri-acylated lipid anchor; O-glycosylation, 7 sites
notes: also called His-tagged BamG; source: P. gingivalis expressing C-terminally His-tagged BamG (homologous recombination), membranes solubilised in DDM; not shown: His7, C-terminal, kept

Columns and labels:
Conditions in all cases: both partners purified
[1] = molecular target: B3; assay: cryo-EM structure
[2] = molecular target: B3; assay: cryo-EM structure; BtBAM complex co-purified through BtBamAhis from B. theta membranes, in DDM, 8 mg/ml; two 3D classes and a composite model
[3] = molecular target: T1, BtBamA (Bt3725) with an N-terminal His7 …; assay: as above
[4] = molecular target: T2, PgBamA (PGN_0299); assay: cryo-EM structure; PgBAM complex co-purified through C-terminally His-tagged PgBamG from P. gingivalis membranes, in DDM, 4.9 mg/ml

B1: binds [1].

B2: binds [2].

B3: binds [3].

B4: binds [4].
